Assay in all cases: ITC
In one assay the target is T1, γHV68 M11 (murine γ-herpesvirus 68, UniProt P89884 1-136).
T1 sequence: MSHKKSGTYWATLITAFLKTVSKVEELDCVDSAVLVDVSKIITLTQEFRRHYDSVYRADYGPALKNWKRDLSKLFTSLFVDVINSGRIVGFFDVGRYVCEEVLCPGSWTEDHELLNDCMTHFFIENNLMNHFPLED

A further assay deals with T2, KSHV Bcl-2 (Kaposi's sarcoma-associated HV, UniProt P90504).
T2 sequence: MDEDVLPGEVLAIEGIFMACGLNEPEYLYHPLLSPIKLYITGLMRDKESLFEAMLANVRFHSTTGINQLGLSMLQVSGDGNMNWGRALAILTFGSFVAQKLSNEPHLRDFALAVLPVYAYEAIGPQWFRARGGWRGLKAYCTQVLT

In another assay the target is cellular Bcl-2 (UniProt P10415 1-211).
Sequence of cellular Bcl-2 (P10415 1-211): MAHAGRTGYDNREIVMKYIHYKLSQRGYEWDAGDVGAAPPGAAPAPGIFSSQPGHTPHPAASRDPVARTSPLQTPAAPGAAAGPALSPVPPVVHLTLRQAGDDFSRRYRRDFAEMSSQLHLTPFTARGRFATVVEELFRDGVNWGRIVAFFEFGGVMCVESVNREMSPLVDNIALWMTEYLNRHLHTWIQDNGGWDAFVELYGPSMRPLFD

In general, Kd refers to the free concentration of one partner at which half of the binding sites on the other are occupied at equilibrium, for simple one-to-one binding. A higher Kd goes with lower affinity. On to DGGTMENLSRRLKVTGDLFDIMSGQT (peptide, UniProt Q14457 105-130, looked up) [Beclin 1 BH3 domain], for which the Kd was 1.1 µM with γHV68 M11, 13.3 µM in the assay with KSHV Bcl-2 and 8 µM in the assay with cellular Bcl-2.

B1: MBP•Beclin 1(1–135)•His6 (domain or fragment, human, UniProt Q14457 1-135, looked up)
chain: MEGSKTSNNSTMQVSFVCQRCSQPLKLDTSFKILDRVTIQELTAPLLTTAQAKPGETQEEETNSGEEPFIETPRQDGVSRRFIPPARMMSTESANSFTLIGEASDGGTMENLSRRLKVTGDLFDIMSGQTDVDHP
Turning to B1, the Kd with γHV68 M11 came to 0.2 µM; in the assay with KSHV Bcl-2 it was 54.2 µM; with cellular Bcl-2, 8.6 µM.

The values above are taken from article PMC2755179 (Autophagy, 2008).
